Experimental data as given in patent publication US20170327598A1 (published 2017).

Experiments:
[1] = target: human KRAS (normal human KRAS, full protein) (human, UniProt P01116-2 1-188, limits assumed); test: SPR, Biacore 3000
[2] = target: endogenous STAT3 of the murine 4T1 cell line (murine, UniProt P42227 2-770); test: immunoprecipitation from 4T1 lysate, Western blot
human STAT3 = human STAT3 (human, UniProt P40763 1-770, limits assumed); test: SPR, Biacore 3000
human STAT3 (Biacore) = human STAT3 (Biacore) (human, UniProt P40763 1-770, limits assumed); test: SPR

Sequence of endogenous STAT3 of the murine 4T1 cell line (P42227 2-770 limits assumed): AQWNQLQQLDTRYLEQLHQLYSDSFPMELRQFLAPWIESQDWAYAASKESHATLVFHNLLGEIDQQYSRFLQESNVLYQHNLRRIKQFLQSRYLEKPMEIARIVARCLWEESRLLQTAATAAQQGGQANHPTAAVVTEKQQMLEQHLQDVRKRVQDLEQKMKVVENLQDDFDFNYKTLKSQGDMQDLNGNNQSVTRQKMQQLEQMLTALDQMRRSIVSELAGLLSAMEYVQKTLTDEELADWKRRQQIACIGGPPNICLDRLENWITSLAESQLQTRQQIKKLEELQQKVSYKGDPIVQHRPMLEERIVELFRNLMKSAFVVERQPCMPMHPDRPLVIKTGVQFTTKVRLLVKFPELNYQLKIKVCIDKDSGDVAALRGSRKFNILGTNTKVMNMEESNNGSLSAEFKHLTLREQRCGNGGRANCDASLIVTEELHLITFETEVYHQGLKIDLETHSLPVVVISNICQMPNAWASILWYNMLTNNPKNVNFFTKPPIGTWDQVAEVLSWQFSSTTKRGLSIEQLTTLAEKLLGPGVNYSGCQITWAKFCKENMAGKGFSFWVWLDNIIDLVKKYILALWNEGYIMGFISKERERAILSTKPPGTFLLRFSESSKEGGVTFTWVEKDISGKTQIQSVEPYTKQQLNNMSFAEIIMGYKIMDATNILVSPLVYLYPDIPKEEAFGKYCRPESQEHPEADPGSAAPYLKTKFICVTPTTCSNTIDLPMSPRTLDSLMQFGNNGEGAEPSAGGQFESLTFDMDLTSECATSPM

B1: anti-STAT3 VHH13 (SEQ ID NO:3) sdAb (VHH)
VHH: HVQLVESGGGSVQAGGSLRLSCAASGANGGRSCMGWFRQVPGKEREGVSGISTGGLITYYADSVKGRFTISQDNTKNTLYLQMNSLKPEDTAMYYCATSRFDCYRGSWFNRYMYNSWGQGTQVTVSS
With B1 the Kd [1] was 126 nM.

B2: anti-STAT3 VHH13 (SEQ ID NO:3) sdAb (VHH)
VHH: HVQLVESGGGSVQAGGSLRLSCAASGANGGRSCMGWFRQVPGKEREGVSGISTGGLITYYADSVKGRFTISQDNTKNTLYLQMNSLKPEDTAMYYCATSRFDCYRGSWFNRYMYNSWGQGTQVTVSS
B2: binds [2].

B3: anti-KRAS (G12D) (SEQ ID NO:2) sdAb (VHH)
VHH: EVQLVESGGGSVQTGGSLRLSCAVSGNIGSSYCMGWFRQAPGKKREAVARIVRDGATGYADYVKGRFTISRDSAKNTLYLQMNRLIPEDTAIYYCAADLPPGCLTQAIWNFGYRGQGTLVTVSS
B3: no binding (tested: 0-200 nM) (human STAT3).

B4: anti-KRAS (G12D) (SEQ ID NO:2) sdAb (VHH)
VHH: EVQLVESGGGSVQTGGSLRLSCAVSGNIGSSYCMGWFRQAPGKKREAVARIVRDGATGYADYVKGRFTISRDSAKNTLYLQMNRLIPEDTAIYYCAADLPPGCLTQAIWNFGYRGQGTLVTVSS
B4: no binding (human STAT3 (Biacore)).
